From patent US20240150411A1 (University of Washington, published 2024) come the findings set out here.

The target in this assay is T1, I53-50A trimer.
T1 construct: also called trimeric I53-50A
T1 chain: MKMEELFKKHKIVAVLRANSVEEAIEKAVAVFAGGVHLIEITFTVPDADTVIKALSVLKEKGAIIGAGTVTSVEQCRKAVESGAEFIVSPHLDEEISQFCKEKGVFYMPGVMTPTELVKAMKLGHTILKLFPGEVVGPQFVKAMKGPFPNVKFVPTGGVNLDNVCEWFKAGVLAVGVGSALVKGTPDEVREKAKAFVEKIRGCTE
Briefly: in vitro co-assembly into partial valency nanostructures, purified by size exclusion chromatography. A general note: SEC sorts molecules by how far they enter the pores of the column.

B1: I53-50B.4PosT1 pentamer (designed binder)
chain: MNQHSHKDHETVRIAVVRARWHAEIVDACVSAFEAAMRDIGGDRFAVDVFDVPGAYEIPLHARTLAETGRYGAVLGTAFVVNGGIYRHEFVASAVINGMMNVQLNTGVPVLSAVLTPHNYDKSKAHTLLFLALFAVKGMEAARACVEILAAREKIAA
notes: Expressed and purified as in Bale et al; also called I53-50B.4PT1; I53-50B.4PosT1 pentamers
For the molecule B1, the binding result is given as “binds”.
